Measurements taken from patent EP4803547A1 (Biontech (Zhuhai) Pharmaceuticals R&D Co., Ltd, dated 2026).

How the values were obtained:
[1] = target: T1, human CD40 on cells (human, UniProt P25942 21-277); assay: flow cytometry on CHO-hCD40 cells, anti-human IgG-Fc PE
T1 construct: whole, on cells; One molecule is used for human CD40 on the three cell types; also called CHO-hCD40; CHO-S cells overexpressing human CD40

[2] = target: T2, human PD-1 on cells (human, UniProt Q15116 25-288); assay: flow cytometry on CHO-hPD-1 cells, anti-human IgG-Fc PE
T2 construct: whole, on cells; also called CHO-hPD-1; CHO-S cells overexpressing human PD-1
T2 sequence (Q15116 25-288): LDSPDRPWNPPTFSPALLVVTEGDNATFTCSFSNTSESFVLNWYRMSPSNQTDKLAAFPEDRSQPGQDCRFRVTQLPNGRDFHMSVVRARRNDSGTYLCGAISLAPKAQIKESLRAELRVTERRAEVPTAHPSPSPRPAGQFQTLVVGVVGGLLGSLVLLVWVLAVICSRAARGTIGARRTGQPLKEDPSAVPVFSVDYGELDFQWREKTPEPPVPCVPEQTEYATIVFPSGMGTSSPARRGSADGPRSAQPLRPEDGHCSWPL

[3] = target: human PD-1 protein (human, UniProt Q15116 25-167, limits assumed); assay: BLI (ForteBio), antibody on AHQ sensor, 100 nM antigen, 1:1 model
human PD-1 protein, sequence (Q15116 25-167 limits assumed): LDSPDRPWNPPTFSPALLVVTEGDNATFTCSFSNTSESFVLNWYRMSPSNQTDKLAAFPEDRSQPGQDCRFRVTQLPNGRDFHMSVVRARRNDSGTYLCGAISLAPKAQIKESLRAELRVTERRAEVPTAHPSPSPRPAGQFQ

[4] = target: human CD40 protein (human, UniProt P25942 21-193, limits assumed); assay: as above
human CD40 protein, sequence (P25942 21-193 limits assumed): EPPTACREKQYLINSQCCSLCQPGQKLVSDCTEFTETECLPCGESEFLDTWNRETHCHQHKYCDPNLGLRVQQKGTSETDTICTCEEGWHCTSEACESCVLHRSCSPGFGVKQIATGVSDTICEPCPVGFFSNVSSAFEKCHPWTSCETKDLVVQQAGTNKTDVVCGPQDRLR

Measured: binding result

T1 sequence (P25942 21-277): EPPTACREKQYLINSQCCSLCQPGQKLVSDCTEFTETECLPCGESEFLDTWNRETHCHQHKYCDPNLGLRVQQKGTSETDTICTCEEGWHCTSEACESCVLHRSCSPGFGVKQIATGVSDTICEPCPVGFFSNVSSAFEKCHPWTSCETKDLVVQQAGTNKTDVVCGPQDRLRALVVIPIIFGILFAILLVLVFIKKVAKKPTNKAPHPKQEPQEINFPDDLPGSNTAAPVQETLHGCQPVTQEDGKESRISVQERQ

B1: PD1(pembro)xCD40(non-blocker, ADI-55164) (bispecific antibody, human IgG1, kappa)
heavy: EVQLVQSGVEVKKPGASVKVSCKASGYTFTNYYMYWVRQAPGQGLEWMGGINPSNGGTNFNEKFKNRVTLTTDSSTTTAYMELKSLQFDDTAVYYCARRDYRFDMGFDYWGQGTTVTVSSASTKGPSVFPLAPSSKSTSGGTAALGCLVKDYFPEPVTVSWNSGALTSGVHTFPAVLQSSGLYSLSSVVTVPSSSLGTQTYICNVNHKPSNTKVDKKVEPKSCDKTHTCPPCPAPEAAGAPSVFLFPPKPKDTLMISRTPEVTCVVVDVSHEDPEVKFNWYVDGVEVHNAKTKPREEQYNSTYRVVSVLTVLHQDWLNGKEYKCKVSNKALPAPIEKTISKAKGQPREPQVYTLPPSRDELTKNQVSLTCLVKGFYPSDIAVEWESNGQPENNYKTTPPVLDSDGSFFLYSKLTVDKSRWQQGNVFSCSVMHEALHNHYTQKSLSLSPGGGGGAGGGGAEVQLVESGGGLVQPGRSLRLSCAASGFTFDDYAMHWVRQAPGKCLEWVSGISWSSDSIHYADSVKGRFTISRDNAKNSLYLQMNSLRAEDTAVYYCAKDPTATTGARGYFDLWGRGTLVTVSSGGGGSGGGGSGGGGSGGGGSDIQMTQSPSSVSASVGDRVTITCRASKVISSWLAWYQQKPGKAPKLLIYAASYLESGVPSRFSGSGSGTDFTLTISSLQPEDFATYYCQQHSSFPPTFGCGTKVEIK
light: EIVLTQSPATLSLSPGERATLSCRASKGVSTSGYSYLHWYQQKPGQAPRLLIYLASYLESGVPARFSGSGSGTDFTLTISSLEPEDFAVYYCQHSRDLPLTFGGGTKVEIKRTVAAPSVFIFPPSDEQLKSGTASVVCLLNNFYPREAKVQWKVDNALQSGNSQESVTEQDSKDSTYSLSSTLTLSKADYEKHKVYACEVTHQGLSSPVTKSFNRGEC
notes: also called BsAb-3; PD1(pembro)xCD40(ADI-55164)
binds: all assays above

B2: PD1xCD40(blocker, ADI-55147) (bispecific antibody, human IgG1, kappa)
heavy: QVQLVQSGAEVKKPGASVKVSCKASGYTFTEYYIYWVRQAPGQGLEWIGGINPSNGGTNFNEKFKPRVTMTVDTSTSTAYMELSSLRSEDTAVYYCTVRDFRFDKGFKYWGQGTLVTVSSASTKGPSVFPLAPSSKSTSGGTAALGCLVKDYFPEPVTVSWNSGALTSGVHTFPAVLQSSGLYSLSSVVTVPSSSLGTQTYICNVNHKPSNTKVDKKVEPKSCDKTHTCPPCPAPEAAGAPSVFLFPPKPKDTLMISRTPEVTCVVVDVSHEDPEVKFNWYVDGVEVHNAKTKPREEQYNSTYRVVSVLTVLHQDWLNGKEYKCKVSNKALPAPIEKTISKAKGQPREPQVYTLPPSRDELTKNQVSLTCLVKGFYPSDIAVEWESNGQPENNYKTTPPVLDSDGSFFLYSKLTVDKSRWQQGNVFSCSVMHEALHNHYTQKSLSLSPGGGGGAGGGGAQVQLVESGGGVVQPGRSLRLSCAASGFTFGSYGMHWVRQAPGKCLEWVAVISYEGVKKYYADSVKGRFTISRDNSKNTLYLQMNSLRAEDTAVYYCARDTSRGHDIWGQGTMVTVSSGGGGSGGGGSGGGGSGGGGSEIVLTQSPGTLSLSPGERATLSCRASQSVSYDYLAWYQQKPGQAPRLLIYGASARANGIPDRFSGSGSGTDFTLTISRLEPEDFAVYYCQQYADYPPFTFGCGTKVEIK
light: EIVLTQSPATLSLSPGERATLSCRASKSVSTSGLNYVHWYQRKPGQAPRLLIYLGSYLDSGVPARFSGSGSGTDFTLTISSLEPEDFAVYYCQQSWELPLTFGGGTKVEIKRTVAAPSVFIFPPSDEQLKSGTASVVCLLNNFYPREAKVQWKVDNALQSGNSQESVTEQDSKDSTYSLSSTLTLSKADYEKHKVYACEVTHQGLSSPVTKSFNRGEC
notes: also called BsAb-2
binds: all assays above
